Measured values: the supplement of paper PMC10567573

B1: IQUB (parent)
chain: KIREKEEWIKLDYHRRHNPKTNED
B2: IQUB (parent)
chain: CRNCINLQNEAQKRESFLKYKCLL

Variants of: B1
Experiment: protein stability index of a GFP-peptide fusion (GPS, HEK-293T) (PSI 1-6); higher = more stable
Conditions: c terminus: a fixed tail appended
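Also: lentivirally expressed fusions sorted by FACS into six bins by GFP to DsRed ratio, PSI derived from sequencing read proportions per bin multiplied by bin number.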

Going from KIREKEEWIKLDYHRRHNPKLNED [T21L] to KIREKEEWIKLDYHRRHNPKMNED [T21M], the protein stability index falls from 4.13 to 4.1.

Compared with KIREKEEWIKLDYHRRHNPKWNED [T21W], KIREKEEWIKLDYHRRHNPKQNED [T21Q] is higher in protein stability index: 3.77 for the first, 4.75 for the second.

First: KIREKEEWIKLDYHRRHNPKRNED [T21R]
Second: KIREKEEWIKLDYHRRHNPKYNED [T21Y]
The protein stability index of the first is higher: 4.82 for the first, 4.52 for the second.

Compared with KIREKEEWIKLDYHRRHNPKKNED [T21K], KIREKEEWIKLDYHRRHNPKPNED [T21P] is lower in protein stability index: 5.05 for the first, 4.74 for the second.

Compared with KIREKEEWIKLDYHRRHNPKVNED [T21V], KIREKEEWIKLDYHRRHNPKNNED [T21N] is higher in protein stability index: 4.46 for the first, 4.75 for the second.

Going from KIREKEEWIKLDYHRRHNPKHNED [T21H] to KIREKEEWIKLDYHRRHNPKINED [T21I], the protein stability index rises from 4.08 to 4.33.

Going from KIREKEEWIKLDYHRRHNPKSNED [T21S] to KIREKEEWIKLDYHRRHNPKTQED [N22Q], the protein stability index falls from 4.76 to 4.66.

KIREKEEWIKLDYHRRHNPKTYED [N22Y] and KIREKEEWIKLDYHRRHNPKTIED [N22I] are the same in protein stability index: 4.01 for the first, 4.01 for the second.

First: KIREKEEWIKLDYHRRHNPKTSED [N22S]
Second: KIREKEEWIKLDYHRRHNPKTKED [N22K]
The protein stability index of the first is higher: 4.72 for the first, 4.29 for the second.

First: KIREKEEWIKLDYHRRHNPKTPED [N22P]
Second: KIREKEEWIKLDYHRRHNPKTAED [N22A]
The protein stability index of the first is higher: 4.36 for the first, 4.27 for the second.

Compared with KIREKEEWIKLDYHRRHNPKTVED [N22V], KIREKEEWIKLDYHRRHNPKTLED [N22L] is higher in protein stability index: 4.15 for the first, 4.2 for the second.

Compared with KIREKEEWIKLDYHRRHNPKTGED [N22G], KIREKEEWIKLDYHRRHNPKTCED [N22C] is higher in protein stability index: 4.79 for the first, 4.85 for the second.

Going from KIREKEEWIKLDYHRRHNPKTFED [N22F] to KIREKEEWIKLDYHRRHNPKTMED [N22M], the protein stability index rises from 3.84 to 4.29.

Compared with KIREKEEWIKLDYHRRHNPKTDED [N22D], KIREKEEWIKLDYHRRHNPKTRED [N22R] is lower in protein stability index: 4.7 for the first, 4.03 for the second.

Going from KIREKEEWIKLDYHRRHNPKTWED [N22W] to KIREKEEWIKLDYHRRHNPKTHED [N22H], the protein stability index rises from 2.8 to 4.22.

Going from KIREKEEWIKLDYHRRHNPKTTED [N22T] to KIREKEEWIKLDYHRRHNPKTNEK [D24K], the protein stability index falls from 4.6 to 4.42.

Going from KIREKEEWIKLDYHRRHNPKTNEL [D24L] to KIREKEEWIKLDYHRRHNPKTNEG [D24G], the protein stability index rises from 3.53 to 3.72.

Compared with KIREKEEWIKLDYHRRHNPKTNEC [D24C], KIREKEEWIKLDYHRRHNPKTNEW [D24W] is lower in protein stability index: 3.29 for the first, 3.02 for the second.

First: KIREKEEWIKLDYHRRHNPKTNEY [D24Y]
Second: KIREKEEWIKLDYHRRHNPKTNEI [D24I]
The protein stability index of the first is lower: 3.65 for the first, 3.83 for the second.

Going from KIREKEEWIKLDYHRRHNPKTNER [D24R] to KIREKEEWIKLDYHRRHNPKTNEF [D24F], the protein stability index falls from 3.89 to 3.27.

Going from KIREKEEWIKLDYHRRHNPKTNEM [D24M] to KIREKEEWIKLDYHRRHNPKTNET [D24T], the protein stability index rises from 3.88 to 4.16.

First: KIREKEEWIKLDYHRRHNPKTNEN [D24N]
Second: KIREKEEWIKLDYHRRHNPKTNEP [D24P]
The protein stability index of the first is higher: 4.32 for the first, 3.66 for the second.

Going from KIREKEEWIKLDYHRRHNPKTNEH [D24H] to KIREKEEWIKLDYHRRHNPKTNES [D24S], the protein stability index rises from 4.04 to 4.27.

First: KIREKEEWIKLDYHRRHNPKTNEQ [D24Q]
Second: KIREKEEWIKLDYHRRHNPKTNEA [D24A]
The protein stability index of the first is higher: 4.13 for the first, 3.91 for the second.

Compared with KIREKEEWIKLDYHRRHNPKTNEV [D24V], KIREKEEWIKLDYHRRHNPKTNHD [E23H] is higher in protein stability index: 3.21 for the first, 4.18 for the second.

First: KIREKEEWIKLDYHRRHNPKTNLD [E23L]
Second: KIREKEEWIKLDYHRRHNPKTNND [E23N]
The protein stability index of the first is lower: 4.17 for the first, 4.24 for the second.

Compared with KIREKEEWIKLDYHRRHNPKTNGD [E23G], KIREKEEWIKLDYHRRHNPKTNWD [E23W] is higher in protein stability index: 4.44 for the first, 5.01 for the second.

First: KIREKEEWIKLDYHRRHNPKTNID [E23I]
Second: KIREKEEWIKLDYHRRHNPKTNMD [E23M]
The protein stability index of the first is lower: 4.13 for the first, 4.17 for the second.

Going from KIREKEEWIKLDYHRRHNPKTNQD [E23Q] to KIREKEEWIKLDYHRRHNPKTNSD [E23S], the protein stability index rises from 4.06 to 4.25.

First: KIREKEEWIKLDYHRRHNPKTNAD [E23A]
Second: KIREKEEWIKLDYHRRHNPKTNDD [E23D]
The protein stability index of the first is lower: 4.52 for the first, 5.01 for the second.

First: KIREKEEWIKLDYHRRHNPKTNTD [E23T]
Second: KIREKEEWIKLDYHRRHNPKTNYD [E23Y]
The protein stability index of the first is higher: 4.54 for the first, 3.77 for the second.

Compared with KIREKEEWIKLDYHRRHNPKTNPD [E23P], KIREKEEWIKLDYHRRHNPKTNFD [E23F] is higher in protein stability index: 4.28 for the first, 4.45 for the second.

Going from KIREKEEWIKLDYHRRHNPKTNVD [E23V] to KIREKEEWIKLDYHRRHNPKTNRD [E23R], the protein stability index falls from 4.18 to 3.72.

Variant KIREKEEWIKLDYHRRHNPKTNCD [E23C] has a protein stability index of 3.91.

Variants of: B2
Experiment: as above
Conditions: c terminus: a fixed tail appended

Compared with CRNCINDQNEAQKRESFLKYKCLL [L7D], CRNCINAQNEAQKRESFLKYKCLL [L7A] is lower in protein stability index: 2.31 for the first, 1.75 for the second.

Compared with CRNCINIQNEAQKRESFLKYKCLL [L7I], CRNCINCQNEAQKRESFLKYKCLL [L7C] is higher in protein stability index: 1.79 for the first, 2.13 for the second.

Going from CRNCINGQNEAQKRESFLKYKCLL [L7G] to CRNCINFQNEAQKRESFLKYKCLL [L7F], the protein stability index falls from 2.36 to 1.68.

First: CRNCINHQNEAQKRESFLKYKCLL [L7H]
Second: CRNCINEQNEAQKRESFLKYKCLL [L7E]
The protein stability index of the first is lower: 1.55 for the first, 2.27 for the second.

Going from CRVCINLQNEAQKRESFLKYKCLL [N3V] to CRYCINLQNEAQKRESFLKYKCLL [N3Y], the protein stability index rises from 1.7 to 1.76.

First: CRPCINLQNEAQKRESFLKYKCLL [N3P]
Second: CRRCINLQNEAQKRESFLKYKCLL [N3R]
The protein stability index of the first is higher: 1.92 for the first, 1.76 for the second.

First: CRTCINLQNEAQKRESFLKYKCLL [N3T]
Second: CRDCINLQNEAQKRESFLKYKCLL [N3D]
The protein stability index of the first is higher: 3.29 for the first, 1.92 for the second.

Compared with CRQCINLQNEAQKRESFLKYKCLL [N3Q], CRLCINLQNEAQKRESFLKYKCLL [N3L] is lower in protein stability index: 2.7 for the first, 1.91 for the second.

Going from CRFCINLQNEAQKRESFLKYKCLL [N3F] to CRGCINLQNEAQKRESFLKYKCLL [N3G], the protein stability index falls from 1.83 to 1.76.

Going from CRSCINLQNEAQKRESFLKYKCLL [N3S] to CRMCINLQNEAQKRESFLKYKCLL [N3M], the protein stability index falls from 2.59 to 1.08.

First: CRWCINLQNEAQKRESFLKYKCLL [N3W]
Second: CRACINLQNEAQKRESFLKYKCLL [N3A]
The protein stability index of the first is lower: 1.68 for the first, 2.14 for the second.

Compared with CRHCINLQNEAQKRESFLKYKCLL [N3H], CRECINLQNEAQKRESFLKYKCLL [N3E] is lower in protein stability index: 1.99 for the first, 1.37 for the second.

Going from CRCCINLQNEAQKRESFLKYKCLL [N3C] to CRICINLQNEAQKRESFLKYKCLL [N3I], the protein stability index rises from 1.61 to 2.71.

Work on CRKCINLQNEAQKRESFLKYKCLL [N3K] yielded a protein stability index of 1.9.
